This is an account of results in patent US20240317847A1 (Bayer, published 2024).

Assay [1] deals with T1, human IL-11 (human, UniProt P20809 22-199).
T1 sequence: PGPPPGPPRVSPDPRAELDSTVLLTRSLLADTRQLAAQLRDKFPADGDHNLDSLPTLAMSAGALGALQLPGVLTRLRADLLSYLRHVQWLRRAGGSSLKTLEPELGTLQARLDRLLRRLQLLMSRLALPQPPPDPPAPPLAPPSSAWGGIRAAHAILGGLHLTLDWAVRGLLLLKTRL
Kind of assay: cell-based or functional assay.

The target of assay [2] is T2, murine IL-11 (mouse, UniProt P47873 22-199).
T2 sequence: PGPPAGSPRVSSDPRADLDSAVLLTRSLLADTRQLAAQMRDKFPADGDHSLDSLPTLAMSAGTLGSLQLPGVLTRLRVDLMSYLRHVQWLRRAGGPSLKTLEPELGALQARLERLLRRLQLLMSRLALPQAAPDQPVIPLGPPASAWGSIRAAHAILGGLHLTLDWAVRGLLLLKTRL
In words: cell-based or functional assay.

In assay [3] the target is T3, human IL2Ra (human, UniProt P01589 22-240, limits assumed).
T3 construct: bought protein, coated on the plate; also called hIL2RA; IL-2 receptor alpha
T3 sequence (looked up): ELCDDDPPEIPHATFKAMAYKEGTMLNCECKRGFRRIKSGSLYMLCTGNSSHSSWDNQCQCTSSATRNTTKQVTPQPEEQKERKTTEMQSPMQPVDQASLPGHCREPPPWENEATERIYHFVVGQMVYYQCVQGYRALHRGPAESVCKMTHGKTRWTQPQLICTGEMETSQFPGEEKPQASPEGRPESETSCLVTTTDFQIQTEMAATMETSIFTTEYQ
In words: IL2Ra direct binding ELISA, signal ratio to isotype control. On the procedure:
IL2RA (Peprotech, Germany, #200-02RC) was coated at 1 or 0 μg/ml (buffer only control) in 30 μl coating buffer (Candor, #113500) per well on a 384 well microtiter plate (Maxisorb, Nunc, #460518) over night at 4-8° C. After two washes with 50 μl/well washing buffer (PBS+0.05% Tween, pH 7.4), the plates were incubated for two hours at room temperature with 50 μl/well SmartBlock (Candor, #113500). After blocking, the plates were washed three times with washing buffer. Then, a dilution series of the respective antibody (1E-7 [M] down to 2E-13 [M]) in PBS+0.05% Tween, 10% SmartBlock were added in 30 μl to the microtiter plate and incubated for 90 min at room temperature. After three additional washes, 30 μl anti mouse IgG HRP-conjugated antibody (Biotechne, HAF007), diluted 1:1000 in PBS+0.05% Tween (pH 7.4), were added per well and incubated for one hour. After three additional washes, a mixture of Amplex red (Invitrogen, #12222, 10 mM stock solution in DMSO) 1:1000 diluted in PBS and H2O2 (30%, Merck, #107209)) diluted 1:10000 in PBS were added as substrate with 30 μl per well and incubated for 20 min in the dark. Relative fluorescence was measured with a microtiter plate reader at 535/590 nm.
Next, the 42 antibodies were subjected to an IL2Ra binding ELISA as described in Example 20.

B1: TPP-26303 (antibody, V domains shown)
VH: EVQLLESGGGLVQPGGSLRLSCAASGFTFSSYGMHWVRQAPGKGLEWVSVISYDGSYKYYADSVKGRFTISRDNSKNTLYLQMNSLRAEDTAVYYCAAGVPDYWGQGTLVTVSS
VL: QSVLTQPPSASGTPGQRVTISCTGSSSNIGAGYDVHWYQQLPGTAPKLLIYSNNERPEGVPDRFSGSKSGTSASLAISGLRSEDEADYYCAAWDDSLNGPVFGGGTKLTVL
In the case of B1, in assay [1], the “RGA Efficacy (%)” value amounted to 70.2% and the “RGA IC50” value is 22 nM. Also, in assay [2], the “RGA Efficacy (%)” value turned out to be 95.7% and the “RGA IC50” value stood at 2.3 nM. In assay [3], the “hIL2RA ELISA Binding: Ratio to Isotpye” value amounted to 481 ratio.

B2: TPP-26313 (antibody, V domains shown)
VH: EVQLLESGGGLVQPGGSLRLSCAASGFTFSSYGMHWVRQAPGKGLEWVSVISYDGSYKYYADSVKGRFTISRDNSKNTLYLQMNSLRAEDTAVYYCAAGVPDYWGQGTLVTVSS
VL: QSVLTQPPSASGTPGQRVTISCTGSSSNIGAYYDVHWYQQLPGTAPKLLIYSNNERPSGVPDRFSGSKSGTSASLAISGLRSEDEADYYCAAWDDSLNGPVFGGGTKLTVL
On to B2, for which, in assay [1], the “RGA Efficacy (%)” value was 76.1% and the “RGA IC50” value worked out at 1.7 nM. Moreover, in assay [2], the “RGA Efficacy (%)” value came to 96.2% and the “RGA IC50” value amounted to 0.66 nM. Also, in assay [3], the “hIL2RA ELISA Binding: Ratio to Isotpye” value came out at 195 ratio.

B3: TPP-26314 (antibody, V domains shown)
VH: EVQLLESGGGLVQPGGSLRLSCAASGFTFSSYGMHWVRQAPGKGLEWVSVISYDGSYKYYADSVKGRFTISRDNSKNTLYLQMNSLRAEDTAVYYCAAGVPDYWGQGTLVTVSS
VL: QSVLTQPPSASGTPGQRVTISCTGSSSNIGAGYDVHWYQQLPGTAPKLLIYSNNERPSGVPDRFSGSKSGTSASLAISGLRSEDEADYYCAAWDWSLNGPVFGGGTKLTVL
With B3, in assay [1], the “RGA Efficacy (%)” value stood at 69.3% and the “RGA IC50” value came out at 1.1 nM. Besides, in assay [2], the “RGA Efficacy (%)” value was found to be 94.4% and the “RGA IC50” value worked out at 0.8 nM. Besides, the “hIL2RA ELISA Binding: Ratio to Isotpye” value in assay [3] was determined as 455 ratio.

B4: TPP-26306 (antibody, V domains shown)
VH: EVQLLESGGGLVQPGGSLRLSCAASGFTFSSYGMHWVRQAPGKGLEWVSVISYDGSYKYYADSVKGRFTISRDNSKNTLYLQMNSLRAEDTAVYYCAAGVPDYWGQGTLVTVSS
VL: QSVLTQPPSASGTPGQRVTISCTGSSSNIGAGYDVHWYQQLPGTAPKLLIYSNNERPSGVPDRFSGSKSGTSASLAISGLRSEDEADYYCAAWDQSLNGPVFGGGTKLTVL
With B4, in assay [1], the “RGA Efficacy (%)” value worked out at 70% and the “RGA IC50” value stood at 2.2 nM. In addition, in assay [2], the “RGA Efficacy (%)” value was 96.4% and the “RGA IC50” value came out at 1.5 nM. For the same molecule, the “hIL2RA ELISA Binding: Ratio to Isotpye” value in assay [3] stood at 232 ratio.

B5: TPP-26309 (antibody, V domains shown)
VH: EVQLLESGGGLVQPGGSLRLSCAASGFTFSSYGMHWVRQAPGKGLEWVSVISYDGSYKYYADSVKGRFTISRDNSKNTLYLQMNSLRAEDTAVYYCAAGVPDYWGQGTLVTVSS
VL: QSVLTQPPSASGTPGQRVTISCTGSSSNIGAGYDVHWYQQLPGTAPKLLIYSNNERPSGVPDRFSGSKSGTSASLAISGLRSEDEADYYCAAWDFSLNGPVFGGGTKLTVL
As to B5, in assay [1], the “RGA Efficacy (%)” value was found to be 63.9% and the “RGA IC50” value came to 1.5 nM. Further, in assay [2], the “RGA Efficacy (%)” value stood at 92.2% and the “RGA IC50” value worked out at 0.94 nM. Also, in assay [3], the “hIL2RA ELISA Binding: Ratio to Isotpye” value was found to be 234 ratio.

B6: TPP-26311 (antibody, V domains shown)
VH: EVQLLESGGGLVQPGGSLRLSCAASGFTFSSYGMHWVRQAPGKGLEWVSVISYDGSYKYYADSVKGRFTISRDNSKNTLYLQMNSLRAEDTAVYYCAAGVPDYWGQGTLVTVSS
VL: QSVLTQPPSASGTPGQRVTISCTGSSSNIGAGYDHHWYQQLPGTAPKLLIYSNNERPSGVPDRFSGSKSGTSASLAISGLRSEDEADYYCAAWDDSLNGPVFGGGTKLTVL
As for B6, in assay [1], the “RGA Efficacy (%)” value turned out to be 38.1% and the “RGA IC50” value was 1.9 nM. Besides, in assay [2], the “RGA Efficacy (%)” value came out at 86.2% and the “RGA IC50” value stood at 2.2 nM. In addition, the “hIL2RA ELISA Binding: Ratio to Isotpye” value in assay [3] is 292 ratio.

B7: TPP-26304 (antibody, V domains shown)
VH: EVQLLESGGGLVQPGGSLRLSCAASGFTFSSYGMHWVRQAPGKGLEWVSVISYDGSYKYYADSVKGRFTISRDNSKNTLYLQMNSLRAEDTAVYYCAAGVPDYWGQGTLVTVSS
VL: QSVLTQPPSASGTPGQRVTISCTGSSSNIWAGYDVHWYQQLPGTAPKLLIYSNNERPSGVPDRFSGSKSGTSASLAISGLRSEDEADYYCAAWDDSLNGPVFGGGTKLTVL
Consider B7, for which, in assay [1], the “RGA Efficacy (%)” value amounted to 70.4% and the “RGA IC50” value worked out at 5.9 nM. Besides, in assay [2], the “RGA Efficacy (%)” value was found to be 95.2% and the “RGA IC50” value is 1.2 nM. Moreover, the “hIL2RA ELISA Binding: Ratio to Isotpye” value in assay [3] was 436 ratio.

B8: TPP-26315 (antibody, V domains shown)
VH: EVQLLESGGGLVQPGGSLRLSCAASGFTFSSYGMHWVRQAPGKGLEWVSVISYDGSYKYYADSVKGRFTISRDNSKNTLYLQMNSLRAEDTAVYYCAAGVPDYWGQGTLVTVSS
VL: QSVLTQPPSASGTPGQRVTISCTGSSSNIGAHYDVHWYQQLPGTAPKLLIYSNNERPSGVPDRFSGSKSGTSASLAISGLRSEDEADYYCAAWDDSLNGPVFGGGTKLTVL
Consider B8, for which, in assay [1], the “RGA Efficacy (%)” value was 68.3% and the “RGA IC50” value came to 1.7 nM. Also, in assay [2], the “RGA Efficacy (%)” value is 91.5% and the “RGA IC50” value came out at 1.5 nM. Further, the “hIL2RA ELISA Binding: Ratio to Isotpye” value in assay [3] came out at 205 ratio.

B9: TPP-26310 (antibody, V domains shown)
VH: EVQLLESGGGLVQPGGSLRLSCAASGFTFSSYGMHWVRQAPGKGLEWVSVISYDGSYKYYADSVKGRFTISRDNSKNTLYLQMNSLRAEDTAVYYCAAGVPDYWGQGTLVTVSS
VL: QSVLTQPPSASGTPGQRVTISCTGSSSNIGAGYDVHWYQQLPGTAPKLLIYSNNERPWGVPDRFSGSKSGTSASLAISGLRSEDEADYYCAAWDDSLNGPVFGGGTKLTVL
On to B9, for which, in assay [1], the “RGA Efficacy (%)” value turned out to be 59.5% and the “RGA IC50” value was determined as 4.5 nM. In assay [2], the “RGA Efficacy (%)” value worked out at 94.3% and the “RGA IC50” value is 1.1 nM. In addition, in assay [3], the “hIL2RA ELISA Binding: Ratio to Isotpye” value is 231 ratio.

B10: TPP-26308 (antibody, V domains shown)
VH: EVQLLESGGGLVQPGGSLRLSCAASGFTFSSYGMHWVRQAPGKGLEWVSVISYDGSYKYYADSVKGRFTISRDNSKNTLYLQMNSLRAEDTAVYYCAAGVPDYWGQGTLVTVSS
VL: QSVLTQPPSASGTPGQRVTISCTGSSSNIGAGYDVHWYQQLPGTAPKLLIYSNNERPSGVPDRFSGSKSGTSASLAISGLRSEDEADYYCAAWDVSLNGPVFGGGTKLTVL
As to B10, in assay [1], the “RGA Efficacy (%)” value was 63.6% and the “RGA IC50” value was 5.9 nM. Also, in assay [2], the “RGA Efficacy (%)” value came out at 91.6% and the “RGA IC50” value was 1.3 nM. Also, the “hIL2RA ELISA Binding: Ratio to Isotpye” value in assay [3] was 188 ratio.

B11: TPP-26307 (antibody, V domains shown)
VH: EVQLLESGGGLVQPGGSLRLSCAASGFTFSSYGMHWVRQAPGKGLEWVSVISYDGSYKYYADSVKGRFTISRDNSKNTLYLQMNSLRAEDTAVYYCAAGVPDYWGQGTLVTVSS
VL: QSVLTQPPSASGTPGQRVTISCTGSSSNIGAGYDVHWYQQLPGTAPKLLIYSNNERPSGVPDRFSGSKSGTSASLAISGLRSEDEADYYCAAWDISLNGPVFGGGTKLTVL
For the molecule B11, in assay [1], the “RGA Efficacy (%)” value turned out to be 52.7% and the “RGA IC50” value was 5.3 nM. For the same molecule, in assay [2], the “RGA Efficacy (%)” value was found to be 92.3% and the “RGA IC50” value is 1.9 nM. Also, the “hIL2RA ELISA Binding: Ratio to Isotpye” value in assay [3] stood at 176 ratio.

B12: TPP-26316 (antibody, V domains shown)
VH: EVQLLESGGGLVQPGGSLRLSCAASGFTFSSYGMHWVRQAPGKGLEWVSVISYDGSYKYYADSVKGRFTISRDNSKNTLYLQMNSLRAEDTAVYYCAAGVPDYWGQGTLVTVSS
VL: QSVLTQPPSASGTPGQRVTISCTGSSSNIGAGYDVHWYQQLPGTAPKLLIYSNNERPSGVPDRFSGSKSGTSASLAISGLRSEDEADYYCAAWDMSLNGPVFGGGTKLTVL
On to B12, for which the “RGA Efficacy (%)” value in assay [1] turned out to be 69.4%; in assay [2] it was 90.4%. The “RGA IC50” value in assay [1] was 1.6 nM; in assay [2], 1 nM. Besides, the “hIL2RA ELISA Binding: Ratio to Isotpye” value in assay [3] was found to be 221 ratio.
